Values belong to the binder of their own block, whether it stands above or below them.
Assays:
Assay in all cases: multimer staining
[1] = biological target: T1, MAGE-A2 peptide on HLA-DPA1*01:03 / HLA-DPB1*04:01 (human)
T1 peptide: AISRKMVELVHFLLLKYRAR

[2] = biological target: T2, LGSN peptide on HLA-DPA1*01:03 / HLA-DPB1*04:01 (human)
T2 peptide: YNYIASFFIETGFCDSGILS

[3] = biological target: T3, MUC5AC peptide on HLA-DPA1*01:03 / HLA-DPB1*04:01 (human)
T3 peptide: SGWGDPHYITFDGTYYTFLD

[4] = biological target: T4, CCND1 peptide on HLA-DPA1*01:03 / HLA-DPB1*04:01 (human)
T4 peptide: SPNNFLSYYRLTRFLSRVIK

[5] = biological target: T5, HSD17B12 peptide on HLA-DPA1*01:03 / HLA-DPB1*04:01 (human)
T5 peptide: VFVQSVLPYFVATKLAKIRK

B1: 03-MAGE-A2108-127 (TCR)
alpha TRAV36/DV7*04 TRAJ40*01 CDR3: CAVEVNSGTYKYIF
beta TRBV2*01 TRBJ1-1*01 CDR3: CASRRDLAAFF
binding result [1]: recognises

B2: 05-LGSN296-315 (TCR)
alpha TRAV9-2*03 TRAJ32*01 CDR3: CALSDLSYGGATNKLIF
beta TRBV27*01 TRBJ1-5*01 CDR3: CASSKGQGLGNQPQHF
binding result [2]: recognises

B4: 05-MUC5AC4922-4941 (TCR)
Valpha: QTVTQSQPEMSVQEAETVTLSCTYDTSESNYYLFWYKQPPSRQMILVIRQEAYKQQNATENRFSVNFQKAAKSFSLKISDSQLGDTAMYFCAFMKRAETSGSRLTFGEGTQLTVNP
beta TRBV6-2*01 TRBJ2-5*01 CDR3: CASSYWPTRETQYF
binding result [3]: recognises

Now from value to binder:

binding result [1]: recognises
B3: 06-MAGE-A2108-127 (TCR)
alpha TRAV19*01 TRAJ40*01 CDR3: CALSVGTYKYIF
beta TRBV7-9*01 TRBJ2-5*01 CDR3: CASSPGTGGRETQYF

binding result [4]: recognises
B5: 03-CCND1219-238 (TCR)
alpha TRAV2*01 TRAJ21*01 CDR3: CAVCTLYNFNKFYF
beta TRBV6-5*01 TRBJ2-1*01 CDR3: CASLTDNNEQFF

binding result [5]: recognises
B6: 05-HSD17B12225-244 (TCR)
alpha TRAV22*01 TRAJ18*01 CDR3: CAVAPYDRGSTLGRLYF
beta TRBV19*01 TRBJ2-5*01 CDR3: CASSTGQGLETQYF

Reference: patent publication US20220281948A1 (published 2022)
